Assay results reported in US8637043B2, “Compositions useful as ligands for the formyl peptide receptor like 1 receptor and methods of use thereof” (Chemocentryx, Inc., priority 2001, dated 2014).
Several values for one entry are separate records, joined by “and”; a condition that tells them apart may be missing. Equal entries are not always repeated.

Experiments:
infiltrating cells = assay: Immunohistochemistry of infiltrating cells in injected skin samples; type: in vivo, Rhesus macaques; conditions: injected skin samples of Example 14
Procedure: To better define the identity of the infiltrating cells seen in Example 14 (Table 18), the same samples were analyzed by immunohistochemistry using antibodies specific for different cell types. These antibodies included: CD68 (expressed on macrophages, neutrophils and dendritic cells), MHC II (antigen-presenting cells, e.g. macrophages and dendritic cells), HAM-56 (macrophages), fascin (dendritic cells, endothelial cells and epithelial cells), elastase (neutrophils), cytokeratin (epithelial cells), CD3 (T cells), CD20 (B cells), and CD1a (Langerhans cells).

dendritic cells = assay: Dendritic cell infiltration after intradermal injection in mice (anti-DEC-205 staining); type: in vivo; set-up: key to Dendritic cell infiltration Score / Infiltration Score: 0 = none, 1 = slight, 2 = mild, 3 = moderate, 4 = severe
From the text: The following chemokines were obtained from R&D Systems (Minneapolis, Minn.): vMCK-2, mC10, and GM-CSF. The following peptides were synthesized at Phoenix Pharmaceuticals (San Carlos, Calif.): SHAAYtide (SEQ ID NO:6), several […] MODIFIED peptides of SHAAGtide variant (SEQ ID NO:) (i.e. cyclized using the MPR-Cys linked cyclization), control peptide (SEQ ID NO:33, […]Gin Pro Gly lie Lys Arg Arg Trp Leu Met), randomly conjugated to OVA in either a 1:1 or 1:4 ratio (by MBS coupling method), and conjugated to OVA at the C-terminus (C-term, made by the addition of a cysteine), and SHAAGtide variant (SEQ ID NO:3). In three separate experiments, chemokines or peptides (2 μg or 20 μg in PBS) were injected intradermally into BALB/c or C57BI/6 mice (Jackson Laboratory; Bar Harbor, Me.). In each experiment, one mouse received an injection of PBS only as a negative control. At various times after injection, the mice were euthanized, and the area around the injection site was excised and subjected to immunohistology. Frozen sections were stained with anti-DEC-205 antibody (Bio-Whittaker Molecular Applications; Rockland, Me.) that recognizes a dendritic cell-specific molecule (Kraal et al., 1986). A relative staining number on a scale of […] was assigned to each section (0, none; 1, slight; 2, mild; 3, moderate; 4, severe).

mononuclear cells = assay: Mononuclear cell infiltration into the dermis after intradermal injection; type: in vivo, Rhesus macaques
Procedure: Different amounts (8, 20, or 60 μg in 100 μl PBS) of different polypeptides (see Table 18) were injected intradermally in Rhesus macaques under anesthesia. Twenty-four and 48 hours later, 6 mm skin punch biopsies were taken using aseptic technique and then bisected. One portion of the biopsy was embedded in OCT compound, flash frozen in liquid nitrogen and stored at −70° C. The other portion was immersed in formalin and embedded in paraffin wax; subsequently, sections cut on a microtome were stained with hematoxylin and eosin and then microscopically examined for cell infiltration into the dermis (Table 18). As a negative control, monkeys were injected with PBS lacking any polypeptides.
Mononuclear cell infiltration was scored on a scale of 0 to 5:0, very mild perivascular mononuclear inflammatory infiltration throughout the dermis; 1, a mild perivascular mononuclear inflammatory infiltrate seen throughout the dermis; 2, a mild/moderate perivascular mononuclear inflammatory infiltrate seen throughout the dermis; 3, a moderate perivascular mononuclear inflammatory infiltrate seen throughout the dermis; 4, an extensive perivascular mononuclear inflammatory infiltrate seen throughout the dermis; 5, a florid perivascular mononuclear inflammatory infiltrate seen throughout the dermis. intermediate scores are indicates, e.g., “⅔” represents a score between 2 and 3.

B1: mC10: chemokine obtained from R&D Systems (protein, UniProt P27784 22-116, looked up)
C-C motif chemokine 6: GLIQEMEKEDRRYNPPIIHQGFQDTSSDCCFSYATQIPCKRFIYYFPTSGGCIKPGIIFISRRGTQVCADPSDRRVQRCLSTLKQGPRSGNKVIA
identity of infiltrating cells (infiltrating cells): primarily antigen-presenting cells, including macrophages and dendritic cells, but few neutrophils
Dendritic cell infiltration Score (dendritic cells; BALBc mice, 2 μg, 6 hours): 2
Dendritic cell infiltration Score (dendritic cells; BALBc mice, 2 μg, 30 hours): 3 and 2
Dendritic cell infiltration Score (dendritic cells; BALBc mice, 20 μg, 6 hours): 2
Dendritic cell infiltration Score (dendritic cells; C57B1/6 mice, 2 μg dose, 6 hours, 0 none, 1 slight, 2 mild, 3 moderate, 4 severe, one animal per line): 1 (2×) and 2
Dendritic cell infiltration Score (dendritic cells; C57B1/6 mice, 2 μg dose, 30 hours): 2 and 1
Dendritic cell infiltration Score (dendritic cells; C57B1/6 mice, 2 μg dose, 51 hours): 0
infiltration of DEC-205-labeled cells (dendritic cells; summary of Tables 15, 16 and 17): excellent infiltration
Mononuclear cell infiltration score (mononuclear cells; 8 μg, 24 hours): 1
Mononuclear cell infiltration score (mononuclear cells; 8 μg, 48 hours): 0
Mononuclear cell infiltration score (mononuclear cells; 20 μg, 24 hours): 0
Mononuclear cell infiltration score (mononuclear cells; 20 μg, 48 hours): 0
Mononuclear cell infiltration score (mononuclear cells; 60 μg intradermally, 24 hours, scale 0 (very mild) to 5 (florid)): 0
Mononuclear cell infiltration score (mononuclear cells; 60 μg, 48 hours): 0
cell infiltration, in words (mononuclear cells; summary of Table 18): little to no infiltration
